Experimental data as given in publication PMC3772012, “Enzyme Immobilisation on Amino-Functionalised Multi-Walled Carbon Nanotubes: Structural and Biocatalytic Characterisation” (PLoS ONE, 2013).

Substrate: CCCCCCCCCCCCCCCC(=O)Oc1ccc([N+](=O)[O-])cc1
Assay: purified protein
Assay type: biochemical, Thermomyces lanuginosus
Details: free enzyme, 50 mM Tris pH 9.0, 60 °C, 10-60 mM substrate, Triton X-100 and gum acacia in assay buffer

B1: Thermomyces lanuginosus lipase (Thermomyces lanuginosus) (protein)
chain: EVSQDLFNQFNLFAQYSAAAYCGKNNDAPAGTNITCTGNACPEVEKADATFLYSFEDSGVGDVTGFLALDNTNKLIVLSFRGSRSIENWIGNLNFDLKEINDICSGCRGHDGFTSSWRSVADTLRQKVEDAVREHPDYRVVFTGHSLGGALATVAGADLRGNGYDIDVFSYGAPRVGNRAFAEFLTVQTGGTLYRITHTNDIVPRLPPREFGYSHSSPEYWIKSGTLVPVTRNDIVKIEGIDATGGNNQPNIPDIPAHLWYFGLIGTCL
notes: free enzyme
- Km: 3.1 mM
- Vmax: 20.1 µmol/min/mg
